{"source": "FireProtDB (doi:10.1093/hmg/ddv370)", "proteins": {"B1": {"name": "Guanylyl cyclase-activating protein 1 wild type, P43080 (protein)", "chain": "MGNVMEGKSVEELSSTECHQWYKKFMTECPSGQLTLYEFRQFFGLKNLSPSASQYVEQMFETFDFNKDGYIDFMEYVAALSLVLKGKVEQKLRWYFKLYDVDGNGCIDRDELLTIIQAIRAINPCSDTTMTAEEFTDTVFSKIDVNGDGELSLEEFIEGVQKDQMLLDTLTRSLDLTRIVRRLQNGEQDEEGADEAAEAAG"}}, "settings": "Homo sapiens; pH 7.5; Thermal; CD; Tris-HCl; KCl; transition: 2; whole UniProt chain shown", "note": "Values joined by “and” are separate entries in the source; they are usually repeats but may differ in a detail not shown here. Equal values may be shown once."}
{"protein": "B1", "values": [{"measurement": "Tm", "value": "50.1 °C and 51.5 °C"}]}
